This passage reports OD (A492 nm) and OD492 nm results from patent publication US20170052184A1.

Experiment [1] has as its target HCV Core Peptide # 50 (aa 99-113) (hepatitis C virus). Briefly: peptide EIA summary (Table 11), peptide 50, aa 99-113.
The target of experiment [2] is HCV Core Peptide # 52 (aa 103-117) (hepatitis C virus). Briefly: peptide EIA summary (Table 11), peptide 52, aa 103-117.
In experiment [3] the target is HCV Core Peptide # 54 (aa 107-121) (hepatitis C virus). Kind of experiment: EIA on coated peptide 54 (well F7); IgG 2 ug/mL.
The target of experiment [4] is HCV Core Peptide # 49 (aa 97-111) (hepatitis C virus). Kind of experiment: peptide EIA summary (Table 11), peptide 49, aa 97-111.
Experiment [5] concerns the target HCV Core Peptide # 55 (aa 109-123) (hepatitis C virus). Briefly: peptide EIA summary (Table 11), peptide 55, aa 109-123.
Experiment [6] addresses HCV Core Peptide # 54 (aa 107-121) (hepatitis C virus). Briefly: peptide EIA summary (Table 11), peptide 54, aa 107-121.
Experiment [7] has as its target HCV Core Peptide # 50 (aa 99-113) (hepatitis C virus). Kind of experiment: EIA on coated peptide 50 (well B7); IgG 2 ug/mL.
Experiment [8] has as its target HCV Core Peptide # 52 (aa 103-117) (hepatitis C virus). Briefly: EIA on coated peptide 52 (well D7); IgG 2 ug/mL.
The target of experiment [9] is HCV Core Peptide # 55 (aa 109-123) (hepatitis C virus). Kind of experiment: EIA on coated peptide 55 (well G7); IgG 2 ug/mL.
The target in experiment [10] is HCV Core Peptide # 49 (aa 97-111) (hepatitis C virus). Briefly: EIA on coated peptide 49 (well A7); IgG 2 ug/mL.
Experiment [11] addresses HCV Core Peptide # 53 (aa 105-119) (hepatitis C virus). Briefly: EIA on coated peptide 53 (well E7); IgG 2 ug/mL.
Experiment [12] addresses HCV Core Peptide # 51 (aa 101-115) (hepatitis C virus). Briefly: peptide EIA summary (Table 11), peptide 51, aa 101-115.
Experiment [13] concerns the target HCV Core Peptide # 48 (aa 95-109) (hepatitis C virus). Kind of experiment: EIA on coated peptide 48 (well H6); IgG 2 ug/mL.
Experiment [14] has the same target. Kind of experiment: peptide EIA summary (Table 11), peptide 48, aa 95-109.
The target of experiment [15] is HCV Core Peptide # 53 (aa 105-119) (hepatitis C virus). Briefly: peptide EIA summary (Table 11), peptide 53, aa 105-119.
Experiment [16] concerns the target HCV Core Peptide # 51 (aa 101-115) (hepatitis C virus). Kind of experiment: EIA on coated peptide 51 (well C7); IgG 2 ug/mL.
Experiment [17] concerns the target HCV Core1-169 recombinant antigen (hepatitis C virus (HCV-1)) (UniProt P26664). Briefly: sandwich EIA, 25 ng/ml core1-169; capture mAb 208A-110.
The target is the same in experiment [18]. Briefly: sandwich EIA, 25 ng/ml core1-169; capture mAb 208A-207-271.
For experiment [19] the target is unchanged. Briefly: sandwich EIA, 25 ng/ml core1-169; capture mAb 208B-395-334.
Experiment [20] has the same target. Briefly: sandwich EIA, 25 ng/ml core1-169; capture NC capture mAb.
Experiment [21] has the same target. Briefly: sandwich EIA, 25 ng/ml core1-169; capture mAb C11-9.
Experiment [22] shares this target. Kind of experiment: sandwich EIA, 25 ng/ml core1-169; capture mAb 208B-612-226.
Experiment [23] has the same target. Kind of experiment: sandwich EIA, 25 ng/ml core1-169; capture mAb 208B-741.
Experiment [24] shares this target. Kind of experiment: sandwich EIA, 25 ng/ml core1-169; capture mAb 208A-557.
The target is the same in experiment [25]. Briefly: sandwich EIA, 25 ng/ml core1-169; capture mAb C11-7.
Experiment [26] shares this target. Kind of experiment: sandwich EIA, 25 ng/ml core1-169; capture mAb 208A-692.
Experiment [27] shares this target. Kind of experiment: sandwich EIA, 25 ng/ml core1-169; capture mAb 208B-1096.
The target is the same in experiment [28]. Kind of experiment: sandwich EIA, 25 ng/ml core1-169; capture mAb 208A-293.

Chain of HCV Core1-169 recombinant antigen (hepatitis C virus (HCV-1)) (P26664 1-169, tags left off): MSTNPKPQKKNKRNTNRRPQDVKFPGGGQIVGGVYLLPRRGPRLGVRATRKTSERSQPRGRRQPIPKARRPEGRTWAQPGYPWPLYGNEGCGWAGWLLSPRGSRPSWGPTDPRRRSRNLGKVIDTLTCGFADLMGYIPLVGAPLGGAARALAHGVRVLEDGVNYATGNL

Regarding C11-3 (ABT-4) monoclonal antibody, the OD (A492 nm) in experiment [1] was 1.03 OD (A492 nm); in [2], 1.01 OD (A492 nm); in experiment [3], 0.08 OD; in [4], 1.03 OD (A492 nm); in experiment [5], 0.08 OD (A492 nm); in experiment [6] it was 0.08 OD (A492 nm). For the same substance, the OD (A492 nm) in experiment [7] was 0.97 OD; in experiment [8], 0.96 OD; in experiment [9], 0.06 OD; in [10] it was 0.97 OD; in [11] it was 0.36 OD; in experiment [12] it was 1.01 OD (A492 nm). Further, the OD (A492 nm) is 0.81 OD in [13], 0.95 OD (A492 nm) in [14], 0.36 OD (A492 nm) in experiment [15] and 1 OD in [16].
For the substance anti-HCV Core C11-7 monoclonal antibody, the OD492 nm in [17] turned out to be 1.78 OD492; in experiment [18], 0.22 OD492; in [19] it was 0.46 OD492; in experiment [20], 0.22 OD492; in [21], 1.04 OD492; in experiment [22] it was 0.53 OD492. Further, the OD492 nm in experiment [23] amounted to 1.76 OD492; in experiment [24] it was 0.64 OD492; in experiment [25], 0.23 OD492; in experiment [26] it was 0.18 OD492; in experiment [27], 0.45 OD492; in experiment [28], 1.55 OD492.
Consider anti-HCV Core C11-9 monoclonal antibody, for which the OD492 nm in experiment [17] amounted to 2.59 OD492; in experiment [18], 0.44 OD492; in experiment [19] it was 0.95 OD492; in experiment [20], 0.62 OD492; in [21], 2.75 OD492; in experiment [22], 0.63 OD492. The OD492 nm in [23] was 2.32 OD492; in [24] it was 1.18 OD492; in experiment [25], 1.91 OD492; in experiment [26] it was 0.58 OD492; in [27], 0.82 OD492; in experiment [28], 1.84 OD492.
As to “negative control (NC) monoclonal antibody”, the OD492 nm amounted to 0.16 OD492 in experiment [17]; 0.17 OD492 in experiment [18]; 0.22 OD492 in experiment [19]; 0.18 OD492 in experiment [20]; 0.14 OD492 in [21]; 0.22 OD492 in [22]. For the same substance, the OD492 nm turned out to be 0.18 OD492 in experiment [23]; 0.18 OD492 in [24]; 0.17 OD492 in experiment [25]; 0.15 OD492 in [26]; 0.21 OD492 in [27]; 0.23 OD492 in experiment [28].
